The text below walks through data of publication PMC5593927, “Overlapping and Specific Functions of the Hsp104 N Domain Define Its Role in Protein Disaggregation” (Scientific Reports, 2017).

One may read the Kd as the concentration at which binding is half-saturated.

Data set [1] deals with T1, Hsp104N, isolated N domain of S. cerevisiae Hsp104 (first 165 residues) (S. cerevisiae, UniProt P31539 1-165).
T1 construct: Hsp104, S. cerevisiae, isolated N domain consisting of the first 165 residues, cloned into pProEX HTb; Tag cleavage by TEV is told in the general purification paragraph, not for Hsp104N by name; also called His6-Hsp104N; source: E. coli BL21-CodonPlus (DE3)-RIL, purified (Ni-NTA, anion exchange); not shown: His6, N-terminal, cleaved
Description: BLI; Octet RED96; biotinylated C1 peptide immobilised on streptavidin biosensors at 0.5 µM; Hsp104N 4.3 to 137 µM in solution; 50 mM Tris-HCl pH 8.5, 20 mM ammonium citrate, 10% PEG4000, 0.1 mg/ml BSA; 25 °C; 10 min association, 10 min dissociation; equilibrium shifts from two independent measurements. The conditions noted are these: both partners purified. On the technique in general: BLI is a label-free optical method that tracks binding on a fibre tip over time.

Data set [2] deals with the molecule itself. The experiment in a line: crystal structure; Hsp104ND1 crystals grown at 4 °C, space group P6_(5)22, one molecule per asymmetric unit, nucleotide-free; N domain of one molecule contacts the C1 helix of the neighboring molecule; 2.8 Å.

Where no end group is shown, it is not given here. The star is where a group is joined. Biotin = O=C1N[C@H]2[C@H](CS[C@H]2CCCCC(=O)*)N1; Ahx = NCCCCCC(=O)O

B1: Biotinylated C1 peptide (Biotin-Ahx-GEVAEPSVRQTVAILRGLQ) (peptide)
peptide: {Biotin-Ahx}-GEVAEPSVRQTVAILRGLQ
notes: Immobilised on streptavidin biosensors through the biotin; source: synthetic peptide (AAPPTec LLC)
As for B1, the Kd in data set [1] turned out to be 14 ± 1.7 µM.

B2: Hsp104ND1, N-terminal fragment of Saccharomyces cerevisiae Hsp104 (residues 1-360) (domain or fragment, S. cerevisiae, UniProt P31539 1-360, looked up)
chain: MNDQTQFTERALTILTLAQKLASDHQHPQLQPIHILAAFIETPEDGSVPYLQNLIEKGRYDYDLFKKVVNRNLVRIPQQQPAPAEITPSYALGKVLQDAAKIQKQQKDSFIAQDHILFALFNDSSIQQIFKEAQVDIEAIKQQALELRGNTRIDSRGADTNTPLEYLSKYAIDMTEQARQGKLDPVIGREEEIRSTIRVLARRIKSNPCLIGEPGIGKTAIIEGVAQRIIDDDVPTILQGAKLFSLDLAALTAGAKYKGDFEERFKGVLKEIEESKTLIVLFIDEIHMLMGNGKDDAANILKPALSRGQLKVIGATTNNEYRSIVEKDGAFERRFQKIEVAEPSVRQTVAILRGLQPKYE
notes: Hsp104, S. cerevisiae, residues 1-360: N domain and extended D1-large domain with the first helix of the D1-small domain (C1 helix, residues 343-351); residues 4 to 352 traced; The general purification text describes Ni-NTA and TEV cleavage of an N-terminal His6 tag; also called N-terminal fragment of yeast Hsp104
B2: the binding result in data set [2] was “binds”.
